Data published in patent US20130129707A1, “ANTIMICROBIAL ACTIVITY ENHANCING AGENT” (priority 2010, published 2013).

Key:
Type in all cases: cell-based
[1] = system: Escherichia coli K-12 strain (NBRC 3301); assay: Antimicrobial activity enhancement test (colony count, CFU); conditions: culture 17 hours
Procedure: In the antimicrobial activity enhancement test, antimicrobial activity of a sample obtained by mixing the antimicrobial activity enhancing agent of the present invention with lactoferrin or a lactoferrin hydrolysate was measured. As a control, antimicrobial activity of a sample containing only lactoferrin or a lactoferrin hydrolysate was also measured.
By using 1% Bacto peptone medium, Escherichia coli K-12 strain was inoculated into the medium contained in a polystyrene tube with a 5 ml capacity, and precultured in an incubator at 37° C. for 6 hours to obtain a cell suspension for the test. The precultured Escherichia coli was added to a 96-well plate at a cell density of 10^6 cells/mL together with each of the aforementioned samples, and cultured at 37° C. for a predetermined time. After the culture for the predetermined time, the culture medium containing Escherichia coli was serially diluted with 0.85% physiological saline, and plated on an agar medium, and culture was performed at 37° C. for a predetermined time. Then, number of colonies (colony forming units:CFU) was measured.
Antimicrobial activity of each sample was evaluated on the basis of the value of CFU. Degree of enhancement of the antimicrobial activity was calculated by comparison of the numbers of Escherichia coli (CFU) that remained after the test. For example, if CFU of Sample 1 is 100, and CFU of Sample 2 is 10 after the test, the antimicrobial activity of Sample 2 can be determined to be 10 times that of Sample 1. […]
By using 1% Bacto peptone medium (Becton Dickinson), the Escherichia coli K-12 strain (NBRC 3301) was inoculated to the medium contained in a polystyrene tube with a 5 ml capacity at a density of 10^6 CFU/mL, and precultured in an incubator at 37° C. for 6 hours to obtain a cell suspension for the test.
The cell suspension for the test was added to a 96-well plate at a cell density of 10^6 CFU/mL together with each of the aforementioned samples, and culture was performed at 37° C. for 17 hours.
After the culture for 17 hours, the culture medium containing Escherichia coli was serially diluted with 0.85% physiological saline, and plated on an agar medium (Rapid Media RM-SPC, Morinaga Milk Industry), and then culture was performed at 37° C. for 16 hours. Then, number of the formed colonies (CFU: Colony Forming Unit) was measured to evaluate the antimicrobial activity of each sample.

[2] = system: Cronobacter sakazaki ATCC 12868; assay: Minimum inhibitory concentration (MIC), absorbance at 630 nm; conditions: Test Example 6; MIC as lactoferrin concentration; 17 hours, 37° C.
Procedure: (§1) By using 1% Bacto peptone medium (Becton Dickinson), each of Escherichia coli 0111, Cronobacter sakazaki ATCC 12868, Salmonella enteritidis IID 604, Klebsiella pneumoniae JCM 1662T, Pseudomonas aeruginosa MMI 603, Staphylococcus aureus JCM 2151 and Staphylococcus epidermidis JCM 2414T was inoculated to the medium contained in a polystyrene tube with a 5 ml capacity at a density of 10^6 cells/mL, and precultured in an incubator at 37° C. for 6 hours to obtain a cell suspension for the test.
(§2) Each of the cell suspensions for the test was added to a 96-well plate at a cell density of 10^6 cells/mL together with each of the aforementioned samples, and culture was performed at 37° C. for 17 hours.
(§3) After the culture for 17 hours, absorbance of the medium was measured at 630 nm using a microplate reader (Corona Electric). In addition, each bacterium was cultured only with the medium as a control, besides the culture using Samples 16 to 30.
(§4) By using 1% Bacto peptone medium (Becton Dickinson), each of Escherichia coli 0111, Cronobacter sakazaki ATCC 12868, Klebsiella pneumoniae JCM 1662T, Pseudomonas aeruginosa MMI 603, and Staphylococcus aureus JCM 2151 was inoculated to the medium contained in a polystyrene tube with a 5 ml capacity at a density of 10^6 cells/mL, and precultured in an incubator at 37° C. for 6 hours to obtain a cell suspension for the test. In a similar manner, by using the PYG medium (1% Bacto peptone, 0.05% yeast extract (Becton Dickinson), 1% glucose (Wako Pure Chemical Industries)), Streptococcus mutans JCM 5705T was inoculated to the medium contained in a polystyrene tube with a 5 ml capacity at a density of 10^6 cells/mL, and precultured in an incubator at 37° C. for 6 hours to obtain a cell suspension for the test. Further, by using the Sabouraud medium (1% Bacto peptone, 2% glucose), Candida albicans TIMM1768 was inoculated to the medium contained in a polystyrene tube with a 5 ml capacity at a density of 10^6 cells/mL, and precultured in an incubator at 37° C. for 6 hours to obtain a cell suspension for the test.
(§5) After the culture for 17 hours, absorbance of the medium was measured at 630 nm using a microplate reader (Corona Electric). In addition, each bacterium was cultured only with the medium as a control, besides the culture using Samples 31 to 41.

Escherichia coli O111 = assay: as above; conditions: Test Example 6; MIC as lactoferrin concentration; 17 hours, 37° C.
Procedure: as §1, §2, §3, §4, §5

[3] = system: Klebsiella pneumoniae JCM 1662T; assay: as above; conditions: Test Example 6; MIC as lactoferrin concentration; 17 hours, 37° C.
Procedure: as §1, §2, §3, §4, §5

[4] = system: Pseudomonas aeruginosa MMI 603; assay: as above; conditions: Test Example 6; MIC as lactoferrin concentration; 17 hours, 37° C.
Procedure: as §1, §2, §3, §4, §5

[5] = system: Staphylococcus aureus JCM 2151; assay: as above; conditions: Test Example 6; MIC as lactoferrin concentration; 17 hours, 37° C.
Procedure: as §1, §2, §3, §4, §5

[6] = system: Salmonella enteritidis IID 604; assay: as above; conditions: Test Example 6; MIC as lactoferrin concentration; 17 hours, 37° C.
Procedure: as §1, §2, §3

[7] = system: Staphylococcus epidermidis JCM 2414T; assay: as above; conditions: Test Example 6; MIC as lactoferrin concentration; 17 hours, 37° C.
Procedure: as §1, §2, §3

[8] = system: Candida albicans TIMM1768; assay: as above; conditions: Test Example 6; MIC as lactoferrin concentration; Sabouraud medium; 17 hours, 37° C.
Procedure: (§6) In a similar manner, by using the PYG medium (1% Bacto peptone, 0.05% yeast extract (Becton Dickinson), 1% glucose (Wako Pure Chemical Industries)), Streptococcus mutans JCM 5705T was inoculated to the medium contained in a polystyrene tube with a 5 ml capacity at a density of 10^6 cells/mL, and precultured in an incubator at 37° C. for 6 hours to obtain a cell suspension for the test. Further, by using the Sabouraud medium (1% Bacto peptone, 2% glucose), Candida albicans TIMM1768 was inoculated to the medium contained in a polystyrene tube with a 5 ml capacity at a density of 10^6 cells/mL, and precultured in an incubator at 37° C. for 6 hours to obtain a cell suspension for the test.
as §2
(§7) After the culture for 17 hours, absorbance of the medium was measured at 630 nm using a microplate reader (Corona Electric). In addition, each bacterium was cultured only with the medium as a control, besides the culture using Samples 16 to 30. […]
(§8) After the culture for 17 hours, absorbance of the medium was measured at 630 nm using a microplate reader (Corona Electric). […]

[9] = system: Streptococcus mutans JCM 5705T; assay: as above; conditions: Test Example 6; MIC as lactoferrin concentration; PYG medium; 17 hours, 37° C.
Procedure: as §6, §2, §7, §8

B1: Sample 14: Angiogenin-1 (32 μg/mL), bovine, about 15 kDa, separated by gel filtration HPLC in Example 5 (SEQ ID NO: 4) (protein, listed as Bos taurus)
chain: AQDDYRYIHFLTQHYDAKPKGRNDEYCFNMMKNRRLTRPCKDRNTFIHGNKNDIKAICEDRNGQPYRGDLRISKSEFQITICKHKGGSSRPPCRYGATEDSRVIVVGCENGLPVHFDESFITPRH
Change of Log10 CFU relative to control ([1]; Test Example 5): 0.160
Survival rate based on control ([1]; Test Example 5): 144.654%
antimicrobial activity (in words) ([1]; Test Example 5): do not have antimicrobial activity

B2: angiogenin-2: bovine angiogenin-2, about 17 kDa component of peak α in Example 5 (SEQ ID NO: 7) (protein, listed as Bos taurus)
chain: QNDAYRGFLRKHYDPSPTGHDDRYCNTMMERRNMTRPCKDTNTFIHGNSDDIRAVCDDRNGEPYRNGLRRSRSPFQVTTCRHRGGSPRPPCRYRAFRANRVIVIRCRDGFPIHLEENFIPPRP
antimicrobial activity (in words) ([1]; Test Example 5): do not have antimicrobial activity

B3: LF: bovine lactoferrin (Morinaga Milk Industry) diluted with deionized water; 2 mg/mL in Samples 1 and 11 (protein, UniProt P24627 20-708, looked up)
Lactotransferrin: APRKNVRWCTISQPEWFKCRRWQWRMKKLGAPSITCVRRAFALECIRAIAEKKADAVTLDGGMVFEAGRDPYKLRPVAAEIYGTKESPQTHYYAVAVVKKGSNFQLDQLQGRKSCHTGLGRSAGWIIPMGILRPYLSWTESLEPLQGAVAKFFSASCVPCIDRQAYPNLCQLCKGEGENQCACSSREPYFGYSGAFKCLQDGAGDVAFVKETTVFENLPEKADRDQYELLCLNNSRAPVDAFKECHLAQVPSHAVVARSVDGKEDLIWKLLSKAQEKFGKNKSRSFQLFGSPPGQRDLLFKDSALGFLRIPSKVDSALYLGSRYLTTLKNLRETAEEVKARYTRVVWCAVGPEEQKKCQQWSQQSGQNVTCATASTTDDCIVLVLKGEADALNLDGGYIYTAGKCGLVPVLAENRKSSKHSSLDCVLRPTEGYLAVAVVKKANEGLTWNSLKDKKSCHTAVDRTAGWNIPMGLIVNQTGSCAFDEFFSQSCAPGADPKSRLCALCAGDDQGLDKCVPNSKEKYYGYTGAFRCLAEDVGDVAFVKNDTVWENTNGESTADWAKNLNREDFRLLCLDGTRKPVTEAQSCHLAVAPNHAVVSRSDRAAHVKQVLLHQQALFGKNGKNCPDKFCLFKSETKNLLFNDNTECLAKLGGRPTYEEYLGTEYVTAIANLKKCSTSPLLEACAFLTR
Change of Log10 CFU relative to control ([1]; Test Example 2): −2.472
Survival rate based on control ([1]; Test Example 2): 0.337%
Change of Log10 CFU relative to control ([1]; Test Example 5): −2.657
Survival rate based on control ([1]; Test Example 5): 0.220%
MIC [2]: 8000 µg/mL
MIC (Escherichia coli O111): 2000 µg/mL
MIC [3]: 8000 µg/mL
MIC [4]: 8000 µg/mL
MIC [5]: 500 µg/mL
MIC [6]: 4000 µg/mL
MIC [7]: 1000 µg/mL
MIC [8]: 1000 µg/mL
MIC [9]: >8000 µg/mL
